We go through one molecule from publication PMC9929924, “Phosphorylation of the receptor protein Pex5p modulates import of proteins into peroxisomes” (Biological Chemistry, 2022).

Data set [1] can be described thus: Circular dichroism, folding of Pex5p variants. The class given is physicochemical. The following applies: far-UV CD; 25 mM phosphate buffer pH 7.5, 150 mM NaF; 0.2 mg ml^−1. The procedure: Circular dichroism (CD) experiments were performed on a J-810 spectropolarimeter (Jasco). Proteins were dialyzed against 25 mM phosphate buffer (pH 7.5), 150 mM NaF. Far-UV spectra were recorded between 180 and 280 nm, using a 1-mm cuvette and a concentration of 0.2 mg ml^−1 protein. The machine settings were 1 nm bandwidth, 1 s response, 1 nm data pitch and 100 nm min^−1 scan speed.
In general terms: Circular dichroism is the unequal absorption of left and right circularly polarised light.

For data set [2], the system named is docking complex (Pex14p/Pex17p/Pex13p). Kind of data set: Association of Pex5p variants with the peroxisomal docking complex. Format: binding, S. cerevisiae. The following applies: TPA-tagged Pex5p variants, digitonin-solubilized membrane fractions; immunoblot. The method, then: Pex5p was affinity-purified from crude membrane and cytosolic fractions prepared from oleic acid-induced cells expressing TPA-tagged Pex5p as described before with slight modifications ([Agne et al. 2003]; [Schafer et al. 2004]). In brief, cytosolic and membrane fractions were prepared as described above using lysis buffer containing 10% (v/v) glycerol. For the analysis of Pex5p phosphorylation sites, crude membrane fractions were resuspended in glycerol-containing lysis buffer, the protein concentration was adjusted to 5 mg ml^−1, and proteins were solubilized using 1% (v/v) Triton X-100. Unsolubilized material was removed by centrifugation (100,000 g, 1 h, 4 °C). The cleared detergent extracts as well as cytosolic fractions were subjected to affinity purification via IgG Sepharose. Proteins bound to the matrix were eluted by incubation with AcTEV protease (Thermo Fisher Scientific/Invitrogen) followed by addition of Ni-NTA agarose to remove the His-tagged TEV protease. Eluted proteins were collected by centrifugation and precipitated by adding the fivefold volume of ice-cold acetone followed by incubation at −20 °C for at least 1 h. […]
Immunoblot analyses were performed according to standard procedures. […] Quantification of immunoblot signals (Supplementary Figure 1E; n = 3) was performed using the software Image Studio Lite (LI-COR Biosciences).
For orientation: A western blot detects proteins with antibodies after separation by electrophoresis.

Data set [3] can be described thus: Native MS of purified individual proteins (oligomeric state). Format: physicochemical. The following applies: Pex5p 7.5 µM, Pcs60p 5 µM; 200 mM ammonium acetate pH 6.8. The method, then:
Recombinantly expressed Pex5p variants and Pcs60p protein solutions were buffer-exchanged into 200 mM ammonium acetate pH 6.8 at 4 °C using microcentrifuge gel filtration columns Bio-Spin 6 (Bio-Rad Laboratories). Protein concentration was determined spectrophotometrically using a Nanodrop 2000c (Thermo Scientific) by measuring absorption at 280 nm. Proteins were either analyzed individually or as mixture of Pex5p variant with Pcs60p at indicated concentrations to study receptor-cargo complex formation. For this, Pex5p^WT or Pex5p^2D mutant was incubated with Pcs60p for 5 min on ice. Spectra were obtained using a Synapt HDMS (Waters and MS Vision) equipped with an m/z 32,000 range quadrupole by introducing 3 µl sample with an in-house manufactured gold-coated capillary needle (Brosilicate Thin Wall with Filament Clark Capillary Glass, OD 1.0 mm, ID 0.78 mm; Harvard Apparatus). […]
Spectra were calibrated externally using cesium iodide. […] Quantification of complex abundances was performed based on area under signals using a similar approach as previously described ([Danquah et al. 2019]; [Yefremova et al. 2017]). To compare stabilities of receptor-cargo complexes for Pex5p^WT and Pex5p^2D the collisional activation was quantified by calculating center-of-mass energies (E com) based on the abundance-weighted mean charge states of the 1:1 complex for each acceleration voltage. […]

B1: Pex5p^WT: Pex5p wildtype, PTS1 receptor of S. cerevisiae (protein)
chain: MDVGSCSVGNNPLAQLHKHTQQNKSLQFNQKNNGRLNESPLQGTNKPGISEAFISNVNAISQENMANMQRFINGEPLIDDKRRMEIGPSSGRLPPFSNVHSLQTSANPTQIKGVNDISHWSQEFQGSNSIQNRNADTGNSEKAWQRGSTTASSRFQYPNTMMNNYAYASMNSLSGSRLQSPAFMNQQQSGRSKEGVNEQEQQPWTDQFEKLEKEVSENLDINDEIEKEENVSEVEQNKPETVEKEEGVYGDQYQSDFQEVWDSIHKDAEEVLPSELVNDDLNLGEDYLKYLGGRVNGNIEYAFQSNNEYFNNPNAYKIGCLLMENGAKLSEAALAFEAAVKEKPDHVDAWLRLGLVQTQNEKELNGISALEECLKLDPKNLEAMKTLAISYINEGYDMSAFTMLDKWAETKYPEIWSRIKQQDDKFQKEKGFTHIDMNAHITKQFLQLANNLSTIDPEIQLCLGLLFYTKDDFDKTIDCFESALRVNPNDELMWNRLGASLANSNRSEEAIQAYHRALQLKPSFVRARYNLAVSSMNIGCFKEAAGYLLSVLSMHEVNTNNKKGDVGSLLNTYNDTVIETLKRVFIAMNRDDLLQEVKPGMDLKRFKGEFSF
modifications: left off: His6, N-terminal, state not stated
notes: Pex5p wildtype, PTS1 receptor of S. cerevisiae
With B1, in data set [1], the folding result was “folded with no major structural changes”. Besides, the “composition of docking complex and abundance of individual proteins” value in data set [2] was “comparable irrespective of the Pex5p variant expressed”. For the same molecule, the “oligomeric state in native MS” value in data set [3] is recorded as “mainly detected in a monomeric state”.
